Measured values: IntAct's records for PubMed 19229295

B1: Bone morphogenetic protein receptor type-1B (Homo sapiens), O00238 (parent)
chain: MLLRSAGKLNVGTKKEDGESTAPTPRPKVLRCKCHHHCPEDSVNNICSTDGYCFTMIEEDDSGLPVVTSGCLGLEGSDFQCRDTPIPHQRRSIECCTERNECNKDLHPTLPPLKNRDFVDGPIHHRALLISVTVCSLLLVLIILFCYFRYKRQETRPRYSIGLEQDETYIPPGESLRDLIEQSQSSGSGSGLPLLVQRTIAKQIQMVKQIGKGRYGEVWMGKWRGEKVAVKVFFTTEEASWFRETEIYQTVLMRHENILGFIAADIKGTGSWTQLYLITDYHENGSLYDYLKSTTLDAKSMLKLAYSSVSGLCHLHTEIFSTQGKPAIAHRDLKSKNILVKKNGTCCIADLGLAVKFISDTNEVDIPPNTRVGTKRYMPPEVLDESLNRNHFQSYIMADMYSFGLILWEVARRCVSGGIVEEYQLPYHDLVPSDPSYEDMREIVCIKKLRPSFPNRWSSDECLRQMGKLMTECWAHNPASRLTALRVKKTLAKMSESQDIKL
partner: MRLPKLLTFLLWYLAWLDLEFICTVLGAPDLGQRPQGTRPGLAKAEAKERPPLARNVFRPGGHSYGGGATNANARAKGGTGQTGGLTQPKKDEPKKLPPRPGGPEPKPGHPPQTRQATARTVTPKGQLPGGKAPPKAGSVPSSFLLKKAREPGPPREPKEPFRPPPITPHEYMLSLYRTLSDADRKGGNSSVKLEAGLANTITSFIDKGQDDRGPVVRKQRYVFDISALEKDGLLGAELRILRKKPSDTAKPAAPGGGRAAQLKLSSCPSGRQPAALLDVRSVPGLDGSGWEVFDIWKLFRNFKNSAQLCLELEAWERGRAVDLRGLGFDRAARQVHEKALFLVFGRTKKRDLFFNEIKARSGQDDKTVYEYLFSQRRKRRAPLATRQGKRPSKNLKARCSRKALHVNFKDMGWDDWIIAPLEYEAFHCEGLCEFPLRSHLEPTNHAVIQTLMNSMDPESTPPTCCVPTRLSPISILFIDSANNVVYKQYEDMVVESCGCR
B2: Growth/differentiation factor 5 (Homo sapiens), P43026 (parent)
chain: B1 partner

Variants of: B1
Conditions: with gdf5_human GDF5, P43026

| effect of a mutation on the interaction | Variant |
| --- | --- |
| disrupting interaction | MLLRSAGKLNVGTKKEDGESTAPTPRPKVLRCKCHHHCPEDSVNNICSTDGYCFTMIEEDDSGLPVVTSGCLGLEGSDAQCRDTPIPHQRRSIECCTERNECNKDLHPTLPPLKNRDFVDGPIHHRALLISVTVCSLLLVLIILFCYFRYKRQETRPRYSIGLEQDETYIPPGESLRDLIEQSQSSGSGSGLPLLVQRTIAKQIQMVKQIGKGRYGEVWMGKWRGEKVAVKVFFTTEEASWFRETEIYQTVLMRHENILGFIAADIKGTGSWTQLYLITDYHENGSLYDYLKSTTLDAKSMLKLAYSSVSGLCHLHTEIFSTQGKPAIAHRDLKSKNILVKKNGTCCIADLGLAVKFISDTNEVDIPPNTRVGTKRYMPPEVLDESLNRNHFQSYIMADMYSFGLILWEVARRCVSGGIVEEYQLPYHDLVPSDPSYEDMREIVCIKKLRPSFPNRWSSDECLRQMGKLMTECWAHNPASRLTALRVKKTLAKMSESQDIKL [F79A] |

Variants of: B1
Conditions: with gdf5_human GDF5, P43026
Remark: another data set of the same source

| effect of a mutation on the interaction | Variant |
| --- | --- |
| decreasing interaction | MLLRSAGKLNVGTKKEDGESTAPTPRPKVLRCKCSHHCPEDSVNNICSTDGYCFTMIEEDDSGLPVVTSGCLGLEGSDFQCRDTPIPHQRRSIECCTERNECNKDLHPTLPPLKNRDFVDGPIHHRALLISVTVCSLLLVLIILFCYFRYKRQETRPRYSIGLEQDETYIPPGESLRDLIEQSQSSGSGSGLPLLVQRTIAKQIQMVKQIGKGRYGEVWMGKWRGEKVAVKVFFTTEEASWFRETEIYQTVLMRHENILGFIAADIKGTGSWTQLYLITDYHENGSLYDYLKSTTLDAKSMLKLAYSSVSGLCHLHTEIFSTQGKPAIAHRDLKSKNILVKKNGTCCIADLGLAVKFISDTNEVDIPPNTRVGTKRYMPPEVLDESLNRNHFQSYIMADMYSFGLILWEVARRCVSGGIVEEYQLPYHDLVPSDPSYEDMREIVCIKKLRPSFPNRWSSDECLRQMGKLMTECWAHNPASRLTALRVKKTLAKMSESQDIKL [H35S] |
| decreasing interaction | MLLRSAGKLNVGTKKEDGESTAPTPRPKVLRCKCHGHCPEDSVNNICSTDGYCFTMIEEDDSGLPVVTSGCLGLEGSDFQCRDTPIPHQRRSIECCTERNECNKDLHPTLPPLKNRDFVDGPIHHRALLISVTVCSLLLVLIILFCYFRYKRQETRPRYSIGLEQDETYIPPGESLRDLIEQSQSSGSGSGLPLLVQRTIAKQIQMVKQIGKGRYGEVWMGKWRGEKVAVKVFFTTEEASWFRETEIYQTVLMRHENILGFIAADIKGTGSWTQLYLITDYHENGSLYDYLKSTTLDAKSMLKLAYSSVSGLCHLHTEIFSTQGKPAIAHRDLKSKNILVKKNGTCCIADLGLAVKFISDTNEVDIPPNTRVGTKRYMPPEVLDESLNRNHFQSYIMADMYSFGLILWEVARRCVSGGIVEEYQLPYHDLVPSDPSYEDMREIVCIKKLRPSFPNRWSSDECLRQMGKLMTECWAHNPASRLTALRVKKTLAKMSESQDIKL [H36G] |

Variants of: B1
Conditions: with gdf5_human GDF5, P43026
Remark: another data set of the same source

| effect of a mutation on the interaction | Variant |
| --- | --- |
| decreasing interaction | MLLRSAGKLNVGTKKEDGESTAPTPRPKVLRCKCHHHCPEDSVNNICSTDGYCFTMIEEDDSGLPVVTSGCLGLEGSDFACRDTPIPHQRRSIECCTERNECNKDLHPTLPPLKNRDFVDGPIHHRALLISVTVCSLLLVLIILFCYFRYKRQETRPRYSIGLEQDETYIPPGESLRDLIEQSQSSGSGSGLPLLVQRTIAKQIQMVKQIGKGRYGEVWMGKWRGEKVAVKVFFTTEEASWFRETEIYQTVLMRHENILGFIAADIKGTGSWTQLYLITDYHENGSLYDYLKSTTLDAKSMLKLAYSSVSGLCHLHTEIFSTQGKPAIAHRDLKSKNILVKKNGTCCIADLGLAVKFISDTNEVDIPPNTRVGTKRYMPPEVLDESLNRNHFQSYIMADMYSFGLILWEVARRCVSGGIVEEYQLPYHDLVPSDPSYEDMREIVCIKKLRPSFPNRWSSDECLRQMGKLMTECWAHNPASRLTALRVKKTLAKMSESQDIKL [Q80A] |

Variants of: B2
Conditions: with bmpr2_human BMPR2, Q13873
Chain of bmpr2_human BMPR2, Q13873 (Q13873 whole entry): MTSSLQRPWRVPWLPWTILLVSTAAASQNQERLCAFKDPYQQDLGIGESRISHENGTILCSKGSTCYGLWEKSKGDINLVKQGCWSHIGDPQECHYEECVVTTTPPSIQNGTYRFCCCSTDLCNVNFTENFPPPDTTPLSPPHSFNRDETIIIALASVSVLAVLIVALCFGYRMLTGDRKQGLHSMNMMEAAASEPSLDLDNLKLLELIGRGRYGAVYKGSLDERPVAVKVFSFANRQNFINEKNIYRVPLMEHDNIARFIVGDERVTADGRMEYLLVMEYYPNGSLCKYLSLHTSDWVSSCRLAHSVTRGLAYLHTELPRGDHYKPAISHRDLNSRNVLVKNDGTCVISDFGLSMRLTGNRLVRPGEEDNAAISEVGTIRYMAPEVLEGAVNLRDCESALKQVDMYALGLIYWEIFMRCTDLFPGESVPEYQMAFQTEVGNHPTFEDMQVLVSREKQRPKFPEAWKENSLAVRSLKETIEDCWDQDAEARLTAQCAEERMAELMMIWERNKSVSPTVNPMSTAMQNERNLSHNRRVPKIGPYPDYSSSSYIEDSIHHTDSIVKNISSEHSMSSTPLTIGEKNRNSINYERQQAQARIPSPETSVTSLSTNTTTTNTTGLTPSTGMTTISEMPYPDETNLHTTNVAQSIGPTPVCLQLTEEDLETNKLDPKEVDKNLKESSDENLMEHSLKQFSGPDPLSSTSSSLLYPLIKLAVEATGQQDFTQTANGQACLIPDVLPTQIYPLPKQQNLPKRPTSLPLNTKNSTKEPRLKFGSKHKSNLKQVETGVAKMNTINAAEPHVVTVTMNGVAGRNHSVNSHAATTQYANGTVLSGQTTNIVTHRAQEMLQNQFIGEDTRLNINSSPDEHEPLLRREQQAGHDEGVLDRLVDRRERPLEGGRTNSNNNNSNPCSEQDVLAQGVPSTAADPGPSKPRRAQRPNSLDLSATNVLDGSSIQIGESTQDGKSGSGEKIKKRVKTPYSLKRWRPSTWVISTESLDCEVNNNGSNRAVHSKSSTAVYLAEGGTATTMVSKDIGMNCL

| effect of a mutation on the interaction | Variant |
| --- | --- |
| decreasing interaction | MRLPKLLTFLLWYLAWLDLEFICTVLGAPDLGQRPQGTRPGLAKAEAKERPPLARNVFRPGGHSYGGGATNANARAKGGTGQTGGLTQPKKDEPKKLPPRPGGPEPKPGHPPQTRQATARTVTPKGQLPGGKAPPKAGSVPSSFLLKKAREPGPPREPKEPFRPPPITPHEYMLSLYRTLSDADRKGGNSSVKLEAGLANTITSFIDKGQDDRGPVVRKQRYVFDISALEKDGLLGAELRILRKKPSDTAKPAAPGGGRAAQLKLSSCPSGRQPAALLDVRSVPGLDGSGWEVFDIWKLFRNFKNSAQLCLELEAWERGRAVDLRGLGFDRAARQVHEKALFLVFGRTKKRDLFFNEIKARSGQDDKTVYEYLFSQRRKRRAPLATRQGKRPSKNLKARCSRKALHVNFKDMGWDDWIIAPLEYEAFHCEGLCEFPLASHLEPTNHAVIQTLMNSMDPESTPPTCCVPTRLSPISILFIDSANNVVYKQYEDMVVESCGCR [R438A] |
